{"source": "paper PMC4914320", "target": "Telomeric repeat binding factor 2 (TRF2), endogenous (human (endogenous in C1, UTC8505, RD and HEK293T cells))", "assay": "proximity ligation; Duolink PLA in fixed, permeabilised C1 cells with antibodies to HMGA2 (D1A7), TRF2 and RAP1; a minimum of 30 nuclei quantified"}
{"binder": "High Mobility Group AT-hook protein 2 (HMGA2), endogenous (natural protein) MSARGEGAGQPSTSAQGQPAAPAPQKRGRGRPRKQQQEPTGEPSPKRPRGRPKGSKNKSPSKAAQKKAEATGEKRPRGRPRKWPQQVVQKKPAQEETEETSSQESAEED", "values": [{"measurement": "PLA foci per nucleus (PLA foci per nucleus)", "result": 5}]}
